# Assays:
# [1] = molecular target: F-actin (cellular actin filaments of RPE cells) (human (endogenous in RPE cells)) (UniProt P60709); experiment: co-sedimentation; actin pelleting assay: homogenate of RPE cells expressing GFP-myosin VI constructs in F-actin stabilisation buffer (50 mM PIPES pH 6.9, 50 mM NaCl, mild detergents), 100 000 x g, 1 h, 37°C; quantitative immunoblotting, pellet/supernatant normalised to endogenous myosin VI; the pellet also holds cellular membranes
# [2] = molecular target: GIPC in the prey vector pVP16 (UniProt O14908); experiment: mammalian two-hybrid assay; settings: parent: est. 100, read off a plot
# [3] = molecular target: NDP52 in the prey vector pVP16 (UniProt Q13137); experiment: mammalian two-hybrid assay; settings: parent: est. 100, read off a plot
# [4] = molecular target: LMTK2 in the prey vector pVP16 (UniProt Q8IWU2); experiment: mammalian two-hybrid assay; settings: n = 4; parent: est. 100; read off a plot
# [5] = molecular target: optineurin in the prey vector pVP16 (UniProt Q96CV9); experiment: mammalian two-hybrid assay; settings: n = 4; parent: est. 100; read off a plot
# [6] = molecular target: Dab2 in the prey vector pVP16 (UniProt P98082); experiment: mammalian two-hybrid assay; settings: parent: est. 100, read off a plot
# [7] = molecular target: TOM1 in the prey vector pVP16 (UniProt O60784); experiment: mammalian two-hybrid assay; settings: parent: est. 100, read off a plot
# [8] = molecular target: F-actin (cellular actin filaments of RPE cells), P60709; experiment: cell fractionation into supernatant and F-actin-enriched pellet, quantitative immunoblotting; settings: chain shown with the change, n = 3, parent: est. 1.3, read off a plot
molecule,measurement,setting,value
GFP-tagged full-length myosin VI-NI RRL–AAA (from UniProt Q9UM54-1 1-1285) (natural protein),fold increase of the pellet/supernatant ratio against WT myosin VI,[1],> 5 fold
GFP-tagged full-length myosin VI-NI WWY–WLY (from UniProt Q9UM54-1 1-1285) (natural protein),fold increase of the pellet/supernatant ratio against WT myosin VI,[1],3 fold
"Myosin VI globular tail (amino acids 1036–1294), wild type, in the bait vector pM L1109A",percent of parent (% wildtype control),[2]; n = 3,32
same,percent of parent (% wildtype control),[3]; n = 3,100
"Myosin VI globular tail (amino acids 1036–1294), wild type, in the bait vector pM R1107A",percent of parent (% wildtype control),[2]; n = 3,69
same,percent of parent (% wildtype control),[3]; n = 3,76
"Myosin VI globular tail (amino acids 1036–1294), wild type, in the bait vector pM R1108A",percent of parent (% wildtype control),[2]; n = 3,2
same,percent of parent (% wildtype control),[3]; n = 3,16
"Myosin VI globular tail (amino acids 1036–1294), wild type, in the bait vector pM W1253A",percent of parent (% wildtype control),[4],0
same,percent of parent (% wildtype control),[5],120
same,percent of parent (% wildtype control),[6]; n = 4,1
same,percent of parent (% wildtype control),[6]; n = 5,1
same,percent of parent (% wildtype control),[2]; n = 4,59
same,percent of parent (% wildtype control),[3]; n = 4,71
same,percent of parent (% wildtype control),[7]; n = 3,2
same,percent of parent (% wildtype control),[7]; n = 4,2
"GFP-tagged full-length myosin VI-NI, wild type, Q9UM54-1 E1251A (protein) MEDGKPVWAPHPTDGFQMGNIVDIGPDSLTIEPLNQKGKTFLALINQVFPAEEDSKKDVEDNCSLMYLNEATLLHNIKVRYSKDRIYTYVANILIAVNPYFDIPKIYSSEAIKSYQGKSLGTRPPHVFAIADKAFRDMKVLKMSQSIIVSGESGAGKTENTKFVLRYLTESYGTGQDIDDRIVEANPLLEAFGNAKTVRNNNSSRFGKFVEIHFNEKSSVVGGFVSHYLLEKSRICVQGKEERNYHIFYRLCAGASEDIREKLHLSSPDNFRYLNRGCTRYFANKETDKQILQNRKSPEYLKAGSMKDPLLDDHGDFIRMCTAMKKIGLDDEEKLDLFRVVAGVLHLGNIDFEEAGSTSGGCNLKNKSAQSLEYCAELLGLDQDDLRVSLTTRVMLTTAGGTKGTVIKVPLKVEQANNARDALAKTVYSHLFDHVVNRVNQCFPFETSSYFIGVLDIAGFEYFEHNSFEQFCINYCNEKLQQFFNERILKEEQELYQKEGLGVNEVHYVDNQDCIDLIEAKLVGILDILDEENRLPQPSDQHFTSAVHQKHKDHFRLTIPRKSKLAVHRNIRDDEGFIIRHFAGAVCYETTQFVEKNNDALHMSLESLICESRDKFIRELFESSTNNNKDTKQKAGKLSFISVGNKFKTQLNLLLDKLRSTGASFIRCIKPNLKMTSHHFEGAQILSQLQCSGMVSVLDLMQGGYPSRASFHELYNMYKKYMPDKLARLDPRLFCKALFKALGLNENDYKFGLTKVFFRPGKFAEFDQIMKSDPDHLAELVKRVNHWLTCSRWKKVQWCSLSVIKLKNKIKYRAEACIKMQKTIRMWLCKRRHKPRIDGLVKVGTLKKRLDKFNEVVSVLKDGKPEMNKQIKNLEISIDTLMAKIKSTMMTQEQIQKEYDALVKSSEELLSALQKKKQQEEEAERLRRIQEEMEKERKRREEDEKRRRKEEEERRMKLEMEAKRKQEEEERKKREDDEKRIQAEVEAQLARQKEEESQQQAVLEQERRDRELALRIAQSEAELISDEAQADLALRRNDGTRPKMTPEQMAKEMSEFLSRGPAVLATKAAAGTKKYDLSKWKYAELRDTINTSCDIELLAACREEFHRRLKVYHAWKSKNKKRNTETEQRAPKSVTDYDFAPFLNNSPQQNPAAQIPARQREIEMNRQQRFFRIPFIRPADQYKDPQSKKKGWWYAHFDGPWIARQMELHPDKPPILLVAGKDDMEMCELNLEETGLTRKRGAEILPRQFEAIWERCGGIQYLQNAIESRQARPTYATAMLQSLLK",other: pellet:supernatant (P:S) ratio,[8],1.2
